These sequences were tested on Escherichia coli TOP10 (assay: shrunken log2 fold change of peptide-encoding DNA abundance (4.5 h post-induction vs induction); higher = less antimicrobial activity (less host growth inhibition)). Settings: time post-induction: 4.5 h; library: site-saturation at positions 5, 18, 19, 20.
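Further: peptides expressed intracellularly from a pBAD plasmid library in pooled LB shake-flask culture, induced with 0.3% L-arabinose, DNA abundance read by NGS, three biological replicates, DESeq2 with apeglm shrinkage.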

| Sequence | shrunken log2 fold change |
| --- | --- |
| RRIRVRPPRLPRPRPRPLDLPRP | -0.0307 |
| RRIRSRPPRLPRPRPRPDHNPRP | -0.308 |
| RRIRMRPPRLPRPRPRPGFCPRP | 0.442 |
| RRIRIRPPRLPRPRPRPWWNPRP | -0.0623 |
| RRIRNRPPRLPRPRPRPQSHPRP | -0.68 |
| RRIRYRPPRLPRPRPRPGEKPRP | 0.0799 |
| RRIRHRPPRLPRPRPRPEHAPRP | -0.0423 |
| RRIRSRPPRLPRPRPRPGFWPRP | 0.654 |
| RRIRWRPPRLPRPRPRPYMEPRP | -0.101 |
| RRIRYRPPRLPRPRPRPLQHPRP | -0.688 |
| RRIRKRPPRLPRPRPRPKQVPRP | -0.176 |
| RRIRWRPPRLPRPRPRPWFKPRP | -0.123 |
| RRIRNRPPRLPRPRPRPRKLPRP | -0.0702 |
| RRIRVRPPRLPRPRPRPMNVPRP | -0.0915 |
| RRIRGRPPRLPRPRPRPMISPRP | 1.18 |
| RRIRDRPPRLPRPRPRPMSYPRP | -0.0376 |
| RRIRIRPPRLPRPRPRPDHIPRP | -0.0811 |
| RRIRKRPPRLPRPRPRPYTQPRP | -0.0811 |
| RRIRCRPPRLPRPRPRPSEAPRP | 0.125 |
| RRIRKRPPRLPRPRPRPDRQPRP | 0.204 |
| RRIRQRPPRLPRPRPRPHYTPRP | -0.509 |
| RRIRIRPPRLPRPRPRPVNVPRP | -0.404 |
| RRIRYRPPRLPRPRPRPACVPRP | -0.351 |
| RRIRKRPPRLPRPRPRPPRNPRP | 0.671 |
| RRIRARPPRLPRPRPRPINCPRP | -0.0513 |

| Sequence | shrunken log2 fold change |
| --- | --- |
| RRIRYRPPRLPRPRPRPFEDPRP | -0.057 |
| RRIRQRPPRLPRPRPRPQITPRP | -0.337 |
| RRIRARPPRLPRPRPRPRHLPRP | 0.11 |
| RRIRFRPPRLPRPRPRPHDPPRP | -0.1 |
| RRIRIRPPRLPRPRPRPPQTPRP | 0.0803 |
| RRIRRRPPRLPRPRPRPFQAPRP | 0.376 |
| RRIRRRPPRLPRPRPRPRMIPRP | -0.136 |
| RRIRVRPPRLPRPRPRPVAFPRP | -0.0455 |
| RRIRQRPPRLPRPRPRPGSCPRP | 0.192 |
| RRIRPRPPRLPRPRPRPKWNPRP | -0.0477 |
| RRIRSRPPRLPRPRPRPRYAPRP | -0.0842 |
| RRIRKRPPRLPRPRPRPFYVPRP | -0.0997 |
| RRIRPRPPRLPRPRPRPYSSPRP | -0.282 |
| RRIRPRPPRLPRPRPRPRCIPRP | -0.2 |
| RRIRHRPPRLPRPRPRPSYIPRP | -1.77 |
| RRIRIRPPRLPRPRPRPYVSPRP | -0.518 |
| RRIRLRPPRLPRPRPRPWKPPRP | -0.0142 |
| RRIRKRPPRLPRPRPRPALYPRP | 0.453 |
| RRIRRRPPRLPRPRPRPDMWPRP | 0.103 |
| RRIRTRPPRLPRPRPRPRKCPRP | -0.1 |
| RRIRWRPPRLPRPRPRPFADPRP | 0.737 |
| RRIRARPPRLPRPRPRPAISPRP | 0.594 |
| RRIRYRPPRLPRPRPRPKEHPRP | -0.366 |
| RRIRERPPRLPRPRPRPYRVPRP | -0.236 |
| RRIRYRPPRLPRPRPRPNVFPRP | 0.0662 |

| Sequence | shrunken log2 fold change |
| --- | --- |
| RRIRTRPPRLPRPRPRPMVIPRP | -0.0894 |
| RRIRMRPPRLPRPRPRPPQKPRP | 0.173 |
| RRIRWRPPRLPRPRPRPSYRPRP | -0.895 |
| RRIRRRPPRLPRPRPRPVSAPRP | 0.588 |
| RRIRARPPRLPRPRPRPQKLPRP | 0.298 |
| RRIRPRPPRLPRPRPRPNHYPRP | -0.576 |
| RRIRQRPPRLPRPRPRPSPTPRP | 0.292 |
| RRIRSRPPRLPRPRPRPESHPRP | -0.44 |
| RRIRTRPPRLPRPRPRPWHDPRP | -0.0708 |
| RRIRNRPPRLPRPRPRPIYIPRP | 0.0152 |
| RRIRRRPPRLPRPRPRPPYEPRP | 0.492 |
| RRIRDRPPRLPRPRPRPESWPRP | 1.58 |
| RRIRWRPPRLPRPRPRPHYCPRP | -0.269 |
| RRIRDRPPRLPRPRPRPIAPPRP | 0.0634 |
| RRIRKRPPRLPRPRPRPHWCPRP | 1.98 |
| RRIRRRPPRLPRPRPRPHGTPRP | 0.00291 |
| RRIRCRPPRLPRPRPRPYLVPRP | -0.584 |
| RRIRIRPPRLPRPRPRPISGPRP | -0.0415 |
| RRIRFRPPRLPRPRPRPTWAPRP | 0.0327 |
| RRIRTRPPRLPRPRPRPTYLPRP | -0.827 |
| RRIRLRPPRLPRPRPRPAICPRP | 0.207 |
| RRIRRRPPRLPRPRPRPMNQPRP | 0.0252 |
| RRIRSRPPRLPRPRPRPFDTPRP | -0.201 |
| RRIRCRPPRLPRPRPRPSPWPRP | 0.0328 |
| RRIRSRPPRLPRPRPRPIEAPRP | 0.137 |

| Sequence | shrunken log2 fold change |
| --- | --- |
| RRIRTRPPRLPRPRPRPCMQPRP | 1.86 |
| RRIRKRPPRLPRPRPRPIEHPRP | 0.332 |
| RRIRDRPPRLPRPRPRPEFAPRP | 1.54 |
| RRIRFRPPRLPRPRPRPTHLPRP | 0.222 |
| RRIRSRPPRLPRPRPRPHREPRP | -0.14 |
| RRIRSRPPRLPRPRPRPKWSPRP | -0.132 |
| RRIRMRPPRLPRPRPRPYWSPRP | -0.186 |
| RRIRTRPPRLPRPRPRPPKCPRP | -0.339 |
| RRIRMRPPRLPRPRPRPWFKPRP | -0.665 |
| RRIRTRPPRLPRPRPRPQDNPRP | -0.669 |
| RRIRERPPRLPRPRPRPFIHPRP | -1.12 |
| RRIRIRPPRLPRPRPRPIIQPRP | -0.455 |
| RRIRIRPPRLPRPRPRPDPMPRP | -0.205 |
| RRIRFRPPRLPRPRPRPPQFPRP | 0.0547 |
| RRIRERPPRLPRPRPRPRQRPRP | 0.32 |
| RRIRWRPPRLPRPRPRPCRFPRP | 0.0225 |
| RRIRSRPPRLPRPRPRPKEIPRP | -0.0586 |
| RRIRLRPPRLPRPRPRPYMDPRP | -0.0681 |
| RRIRERPPRLPRPRPRPTHPPRP | 0.447 |
| RRIRQRPPRLPRPRPRPIAYPRP | -0.133 |
| RRIRVRPPRLPRPRPRPKCWPRP | 0.313 |
| RRIRARPPRLPRPRPRPIAYPRP | 0.21 |
| RRIRCRPPRLPRPRPRPTGIPRP | 0.287 |
| RRIRYRPPRLPRPRPRPVMTPRP | -0.09 |
| RRIRKRPPRLPRPRPRPQSRPRP | 0.0866 |

| Sequence | shrunken log2 fold change |
| --- | --- |
| RRIRGRPPRLPRPRPRPGELPRP | 0.61 |
| RRIRQRPPRLPRPRPRPRLEPRP | 0.109 |
| RRIRQRPPRLPRPRPRPFPSPRP | -0.0654 |
| RRIRCRPPRLPRPRPRPWLDPRP | -0.273 |
| RRIRHRPPRLPRPRPRPNNYPRP | -0.857 |
| RRIRFRPPRLPRPRPRPHPVPRP | -0.141 |
| RRIRQRPPRLPRPRPRPLGQPRP | 0.125 |
| RRIRYRPPRLPRPRPRPDDQPRP | -0.0136 |
| RRIRARPPRLPRPRPRPEELPRP | 0.499 |
| RRIRLRPPRLPRPRPRPFNCPRP | 0.0515 |
| RRIRQRPPRLPRPRPRPWNEPRP | -0.139 |
| RRIRTRPPRLPRPRPRPMPCPRP | 0.159 |
| RRIRKRPPRLPRPRPRPRFEPRP | 0.43 |
| RRIRYRPPRLPRPRPRPARDPRP | 0.197 |
| RRIRARPPRLPRPRPRPATVPRP | 0.214 |
| RRIRHRPPRLPRPRPRPSLAPRP | -0.219 |
| RRIRCRPPRLPRPRPRPCFCPRP | -0.367 |
| RRIRCRPPRLPRPRPRPEYGPRP | -0.167 |
| RRIRYRPPRLPRPRPRPMAYPRP | -0.0189 |
| RRIRFRPPRLPRPRPRPLIEPRP | -0.132 |
| RRIRNRPPRLPRPRPRPDREPRP | -0.149 |
| RRIRCRPPRLPRPRPRPFFEPRP | -0.0214 |
| RRIRPRPPRLPRPRPRPKDHPRP | 0.0743 |
| RRIRCRPPRLPRPRPRPVPWPRP | -0.139 |
| RRIRQRPPRLPRPRPRPMQVPRP | -0.0356 |

| Sequence | shrunken log2 fold change |
| --- | --- |
| RRIRRRPPRLPRPRPRPLCNPRP | 0.0189 |
| RRIRDRPPRLPRPRPRPDKVPRP | -0.159 |
| RRIRVRPPRLPRPRPRPFQSPRP | -0.00568 |
| RRIRKRPPRLPRPRPRPACCPRP | 0.192 |
| RRIRTRPPRLPRPRPRPSYQPRP | -0.18 |
| RRIRKRPPRLPRPRPRPICSPRP | -9.46e-05 |
| RRIRERPPRLPRPRPRPMRNPRP | -0.062 |
| RRIRMRPPRLPRPRPRPWMWPRP | -0.0668 |
| RRIRTRPPRLPRPRPRPHVWPRP | 0.272 |
| RRIRCRPPRLPRPRPRPPMDPRP | 0.0314 |
| RRIRPRPPRLPRPRPRPSRFPRP | 0.227 |
| RRIRERPPRLPRPRPRPGRMPRP | 0.0231 |
| RRIRQRPPRLPRPRPRPMNRPRP | -0.275 |
| RRIRMRPPRLPRPRPRPLWLPRP | 0.563 |
| RRIRMRPPRLPRPRPRPDSGPRP | -0.01 |
| RRIRWRPPRLPRPRPRPLEEPRP | 1.06 |
| RRIRFRPPRLPRPRPRPCNDPRP | -0.122 |
| RRIRHRPPRLPRPRPRPILYPRP | -0.123 |
| RRIRVRPPRLPRPRPRPMEQPRP | -0.033 |
| RRIRRRPPRLPRPRPRPSEEPRP | 0.125 |
| RRIRDRPPRLPRPRPRPVYSPRP | 0.0356 |
| RRIRIRPPRLPRPRPRPCPYPRP | -0.269 |
| RRIRERPPRLPRPRPRPSMYPRP | -0.516 |
| RRIRRRPPRLPRPRPRPDDFPRP | 0.252 |
| RRIRPRPPRLPRPRPRPYDPPRP | -0.301 |
